Experimental findings from patent US20120065367A1, “Radioactively Labeled Substance” (priority 2009, published 2012) are described below.

Data set [1] is described as follows: Stability of 99mTc complex in buffer. The format is physicochemical. The conditions noted are these: 0.01 M phosphate buffer (pH 6.0), room temperature, after 1, 3, 6, and 24 hours. As to the method: 11. Examination of Stability
Each ^99mTc-labeled compound was purified by RP-HPLC (method 1 or method 2), and then the solvent was distilled off under reduced pressure. The residue was redissolved in 400 μL of 0.01 M phosphate buffer (pH 6.0). This solution was stored at room temperature, and after 1, 3, 6, and 24 hours, its radiochemical purity was analyzed by CAE or RP-HPLC.

In data set [2] the test system is Human glioma cell line, U87MG cells. Put plainly: Accumulation of radiolabeled drug in tumor and organ of tumor-bearing mice. The class given is in vivo, Balb/c-nu/nu mice. The conditions noted are these: for Ratio of accumulation in tumor to that in tissue: Tumor/Blood / Ratio of accumulation in tumor to that in tissue: Tumor/Intestine / Ratio of accumulation in tumor to that in tissue: Tumor/Liver: 1 hour after administration; for Accumulated amount in tissue: Blood / Accumulated amount in tissue: Intestine / Accumulated amount in tissue: Kidney / Accumulated amount in tissue: Liver / Accumulated amount in tissue: Lung / Accumulated amount in tissue: Stomach / Accumulated amount in tissue: Tumor: 1 hour after tail vein administration. As to the method:
Human glioma cell line, U87MG cells at 5×10^6 cells/mouse were administered subcutaneously in the left femur of Balb/c-nu/nu mice at 4 weeks of age. The mice bearing the tumor of 0.5 g in size were used for a body distribution experiment.
A ^99mTc-GH solution with [GH]=4.0 mg/mL was obtained by adding 750 μL (1.58 μCi) of a solution of Na[^99mTcO4] in saline eluted from a ^99Mo/^99mTc generator to a lyophilized GH kit (3.0 mg) including α-D-glucoheptonic acid and stannous chloride to perform a reaction at room temperature for 20 minutes. Further, a 2 mM ligand solution was separately prepared by dissolving D-Pen-Hx-cRGDfK (0.8 mg, […]) in 471 μL of 0.1 M Tris hydrochloride buffer (pH 9.0) purged with nitrogen. 140 μL of the ^99mTc-GH solution was added to 140 μL of the ligand solution, they were sufficiently mixed, and then subjected to a reaction at 40° C. for 40 minutes. The reaction solution was diluted to 40-fold with saline so that [Free ligand]=0.025 mM to use as the unpurified sample to be administered.
A ^99mTc-GH solution with [GH]=4.0 mg/mL was obtained by adding 500 μL (970 μCi) of a solution of Na[^99mTcO4] in saline eluted from a ^99Mo/^99mTc generator to a lyophilized GH kit (2.0 mg) including α-D-glucoheptonic acid and stannous chloride to perform a reaction at room temperature for 20 minutes. Further, a 2 mM ligand solution was separately prepared by dissolving TMEC-[N-hexanoate-c(Arg-Gly-Asp-D-Phe-Lys)]2 (hereinafter, sometimes abbreviated as TMEC-RGD2) (0.7 mg, 0.406 μmol) in 200 μL of 0.1 M acetate buffer (pH 3.5) purged with nitrogen. 200 μL of the ^99mTc-GH solution was added to 200 μL of the ligand solution, they were sufficiently mixed, and then subjected to a reaction at 80° C. for one hour. A half amount of the reaction solution (200 μL) was applied to RP-HPLC (mobile phase: A=10 mM phosphate buffer (pH 6.0), B=MeOH; gradient system: 0 to 18 minutes: B=0 to 60%, 18 to 26 minutes: B=60 to 100%, 26 to 31 minutes: B=100%), a fraction eluted at 24 minutes was collected, the organic solvent was distilled off under reduced pressure, and then the residue was diluted with 10% ethanol/saline to use as the purified sample. Further, the other half amount of the reaction solution (200 μL) was diluted to 40-fold with saline so that [Free ligand]=0.025 mM to use as the unpurified sample to be administered.
100 μL of the unpurified ^99mTC-(D-Pen-Hx-cRDGfK)2 sample (about 1.1 μCi) was administered to the tail veins of tumor-bearing Balb/c-nu/nu male mice at 10 weeks of age. There were 5 mice in one group. The mice were sacrificed by beheading 1 hour after the administration. Blood, organs of interest, and the tumor were removed, and the weight of and the radioactivity in each organ were measured.
100 μL of the purified or unpurified ^99mTc-TMEC-RGD2 sample (about 0.5 μCi) was administered to the tail veins of tumor-bearing Balb/c-nu/nu male mice at 10 weeks of age. There were 4 mice in one group. The mice were sacrificed by beheading 1 hour after the administration. Blood, organs of interest, and the tumor were removed, and the weight of and the radioactivity in each organ were measured.

On the set-up of data set [3]: species or system ddY-strain male mice. The conditions noted are these: mouse. As to the method: 100 μL (about 1 μCi) of unpurified ^99mTc-(D-Pen-N-hexanoate-cRGDfK)2 or ^99mTc-(D-Pen-N-hexanoate-cRGDfK)2 purified by RP-HPLC was administered to the tail veins of ddY-strain male mice at 6 weeks of age (three mice for each group). The mice were sacrificed 10 minutes, 1, 3, and 6 hours after the administration, and blood samples were collected. The mice were anatomized, and the weight and radioactivity of each organ were measured. The radioactivity in urine and feces excreted by 6 hours after the administration was also measured.

Where [4] appears, read: administered after removing the excessive ligand by HPLC.
The mark [5] stands for this setting: administered without removing the excessive ligand.

With “^99mTc-(D-penicillamine)2 [^99mTc-(D-Pen)2]”, in data set [1], the “Stability in a buffer (radiochemical purity)” value is reported as “higher stability”.

For “^99mTc-TMEC-[N-hexanoate-c(Arg-Gly-Asp-D-Phe-Lys)]2 [^99mTc-TMEC-RGD2]”, in data set [2] (setting [4]), the “Ratio of accumulation in tumor to that in tissue: Tumor/Blood” value is reported as 4.91 (1.07), the “Ratio of accumulation in tumor to that in tissue: Tumor/Intestine” value is 0.54 (0.10), the “Ratio of accumulation in tumor to that in tissue: Tumor/Liver” value is on record as 0.65 (0.14) and the “Accumulated amount in tissue: Blood” value is on record as 0.72 (0.02) % injected dose/gram tissue. Further, in data set [2] (setting [4]), the “Accumulated amount in tissue: Intestine” value is on record as 6.70 (0.75) % injected dose/gram tissue, the “Accumulated amount in tissue: Kidney” value was 16.68 (3.87) % injected dose/gram tissue, the “Accumulated amount in tissue: Liver” value is 5.47 (0.41) % injected dose/gram tissue and the “Accumulated amount in tissue: Lung” value is recorded as 2.33 (0.31) % injected dose/gram tissue. Besides, in data set [2] (setting [4]), the “Accumulated amount in tissue: Stomach” value is recorded as 1.20 (0.16) % injected dose and the “Accumulated amount in tissue: Tumor” value was “increased”. Also, the “Accumulated amount in tissue: Tumor” value in data set [2] (administered after removing the excessive ligand by HPLC, listed as 99mTC-TMEC-RGD2) is given as 3.54 (0.72) % injected dose/gram tissue. Moreover, in data set [2] (setting [5]), the “Ratio of accumulation in tumor to that in tissue: Tumor/Blood” value is given as 3.41 (1.55), the “Ratio of accumulation in tumor to that in tissue: Tumor/Intestine” value is recorded as 0.37 (0.13), the “Ratio of accumulation in tumor to that in tissue: Tumor/Liver” value is 0.67 (0.31) and the “Accumulated amount in tissue: Blood” value is on record as 0.86 (0.33) % injected dose/gram tissue. Moreover, in data set [2] (setting [5]), the “Accumulated amount in tissue: Intestine” value is reported as 7.42 (1.95) % injected dose/gram tissue, the “Accumulated amount in tissue: Kidney” value was 26.82 (8.71) % injected dose/gram tissue, the “Accumulated amount in tissue: Liver” value is recorded as 4.57 (2.10) % injected dose/gram tissue and the “Accumulated amount in tissue: Lung” value was 2.38 (0.57) % injected dose/gram tissue. Further, the “Accumulated amount in tissue: Stomach” value in data set [2] (setting [5]) is given as 0.79 (0.30) % injected dose.

With “^99mTc-(D-Pen-N-hexanoate-cRGDfK)2 [^99mTc-(Pen-RGD)2]”, the “Ratio accumulated in the tumor to that in each tissue, compared with purified 99mTc-TMEC-RGD2” value in data set [2] (mouse, in vivo) is “equivalence to or higher than”. Further, the Stability in vivo result in data set [3] was “stable in vivo”.
